Positions count from the first letter of the chain named.
Experiments:
LRRK2 = assay: 7 days of dosing in cynomolgus monkeys, pT73-Rab10 and pS935-LRRK2 western blot; format: in vivo, cynomolgus monkey; conditions: 45 mg/kg daily
Procedure: Phosphorylated Rab10 was also tested in cynomolgus monkey lung and kidney tissue following 7 days of dosing with a LRRK2 inhibitor. Cynomolgus monkeys were dosed daily with the LRRK2 Inhibitor C at a dose of 45 mg/kg. […] Signals from dosed groups were normalized to vehicle control group. Data were presented as mean with SEM.

[1] = molecular target: T1, endogenous phosphorylated Rab10 in human PBMC (Homo sapiens, UniProt P61026); assay: Western blot of human PBMC with anti-pT73-Rab10 antibodies; format: binding; conditions: for detection of endogenous phosphorylated Rab10 signals in human PBMC by western blot: antibody at 1 ug/ml; for Western blot Human PBMC Ratio of DMSO/LRRK2 inhibitor A (mean ± SEM): band intensity normalized with Actin control for each of DMSO and LRRK2 inhibitor A, antibody 1 ug/ml
T1 construct: Strong endogenous phosphorylated Rab10 or phosphorylated Rab8a in human PBMC; host or cells: human PBMC
T1 sequence (P61026 1-200): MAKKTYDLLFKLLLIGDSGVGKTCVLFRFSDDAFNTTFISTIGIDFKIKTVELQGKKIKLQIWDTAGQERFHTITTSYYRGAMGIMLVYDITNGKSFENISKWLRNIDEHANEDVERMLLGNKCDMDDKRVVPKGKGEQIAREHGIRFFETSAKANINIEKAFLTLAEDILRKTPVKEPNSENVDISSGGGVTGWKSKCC

[2] = molecular target: T2, phosphorylated Rab10 in lysates of HEK cells overexpressing LRRK2 (Homo sapiens, UniProt P61026); assay: Sandwich ELISA (diagnostic), HEK cells overexpressing LRRK2; format: binding; conditions: for Sandwich ELISA (diagnostic), Ratio: DMSO / LRRK2 inhibitor A RLU; for Sandwich ELISA (diagnostic) HEK cells overexpressing LRRK2, DMSO (RLU mean ± SD): DMSO treated cells; for Sandwich ELISA (diagnostic) HEK cells overexpressing LRRK2, LRRK2 inhibitor A (RLU mean ± SD): cells treated with LRRK2 inhibitor A
T2 construct: expressed in transfected cells; host or cells: HEK cells overexpressing LRRK2
T2 sequence (P61026 1-200): T1 sequence (P61026 1-200)
Procedure: Sandwich ELISA (Diagnostic) with Anti-Phospho-Rab10 Antibody as the Capture Antibody:
ELISA plates were prepared by coating white Nunc MaxiSorp 384 well plates (Thermo Fisher #460372/Sigma #P6491) with capture antibody for 1 hour at room temperature on a shaking platform. The capture antibody was purified anti-phospho-Rab10 clone 19-4 diluted to 1 ug/mL in carbonate-bicarbonate buffer, and 15 uL/well of coating solution was added to the plate before incubation. Plates were then washed 3× with TBST on a BioTek plate washer. For all subsequent blocking/incubation steps, Pierce Starting Block T20 (TBS) was used (Thermo Fisher #37543). Plates were blocked […] in this solution using 80 uL/well and washed 3× as before. Afterwards samples of cell lysates were added (neat with no dilution) using 30 uL/well and incubated 1 hour at room temperature on a shaking platform. After another 3× wash detection antibody (Creative Diagnostics DCABH 13141, or Abcam, ab104859, 2 ug/mL) was added using 30 uL/well. After 60 minute incubation at room temperature and washing 3×, the secondary anti-species conjugate was added (anti-rabbit HRP antibody (Jackson ImmunoResearch 111-035-144) diluted 1:20000 in assay diluent) at 30 uL/well. After a 60 minute incubation, plates were washed 3× as before. The HRP substrate (Supersignal ELISA Femto HRP substrate—Thermo Fisher #37075) was prepared during this time by mixing both components and equilibrating to room temperature. 50 uL/well of substrate was added to plates, which then were covered and briefly incubated for 1-2 minutes on a shaker platform. Afterwards plates were read on the Synergy plate reader to measure relative light units (RLU).
Sandwich ELISA (Diagnostic) with Anti-Rab10 (Total) Antibody as the Capture Antibody:
ELISA plates were prepared by coating white Nunc MaxiSorp 384 well plates (Thermo Fisher #460372/Sigma # P6491) with capture antibody overnight at 4° C. on a shaking platform. The capture antibodies (anti-Rab10 antibody from either Creative Diagnostics, DCABH-13141, or Abcam, ab104859) were diluted to […] (or 1:100 if the concentration not known) in carbonate-bicarbonate buffer, and 15 uL/well of coating solution was added to the plate before incubation. After this plates were washed 3× with TBST on a BioTek plate washer. For all subsequent blocking/incubation steps, Pierce Starting Block (TBS) (no Tween added) was used (Thermo Fisher #37542). Plates were blocked for 1 hour at room temperature in this solution using 80 uL/well and washed 3× as before. Afterwards samples were added (with lysates being diluted 1:20 in the assay diluent) using 30 uL/well and incubated 2 hours at room temperature on a shaking platform. After another 3× wash detection antibodies were added (diluted to 1 ug/mL for purified antibodies or 1:2 for supernatants) using 30 uL/well. After 90 minute incubation at room temperature and washing 3× the secondary anti-species conjugate was added (anti-rabbit HRP antibody (Jackson ImmunoResearch 111-035-144) diluted 1:20000 in assay diluent) at 30 uL/well. After a 45 minute incubation plates were washed 3× as before. The HRP substrate (Supersignal ELISA Femto HRP substrate—Thermo Fisher #37075) was prepared during this time by mixing both components and equilibrating to room temperature. 50 uL/well of substrate was added to plates, which then were covered and briefly incubated for 1-2 minutes on a shaker platform. Afterwards plates were read on the Synergy plate reader to measure relative light units (RLU).

[3] = molecular target: T3, endogenous phosphorylated Rab8a in human PBMC (Homo sapiens, UniProt P61006); assay: Western blot of human PBMC with anti-pT72-Rab8a antibodies; format: binding; conditions: for detection of endogenous phosphorylated Rab8a signals in human PBMC by western blot: antibody at 1 ug/ml; for Western blot Human PBMC Ratio of DMSO/LRRK2 inhibitor A (mean ± SEM): band intensity normalized with Actin control for each of DMSO and LRRK2 inhibitor A, antibody 1 ug/ml
T3 construct: Strong endogenous phosphorylated Rab10 or phosphorylated Rab8a in human PBMC; host or cells: human PBMC
T3 sequence (P61006 1-207): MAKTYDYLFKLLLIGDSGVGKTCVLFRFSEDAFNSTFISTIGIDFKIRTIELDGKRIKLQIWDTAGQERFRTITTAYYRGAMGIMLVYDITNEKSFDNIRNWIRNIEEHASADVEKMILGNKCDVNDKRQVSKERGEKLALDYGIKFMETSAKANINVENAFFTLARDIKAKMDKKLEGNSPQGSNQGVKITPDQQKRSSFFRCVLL

[4] = normalized to actin and vehicle control group, mean with SEM, N = 4
[5] = normalized to vinculin and vehicle control group, mean with SEM, N = 4

Molecule: Cc1nn(C(C)(C)c2ncn(C)n2)cc1Nc1ncc(C(F)(F)F)c(C2CC2)n1 [LRRK2 Inhibitor C, 4-cyclopropyl-N-(3-methyl-1-(2-(1-methyl-1H-1,2,4-triazol-3-yl)propan-2-yl)-1H-pyrazol-4-yl)-5-(trifluoromethyl)pyrimidin-2-amine]
- dephosphorylation of pT73-Rab10 and pS935-LRRK2 (LRRK2; lung and kidney): significant dephosphorylation
- pT73-Rab10, Kidney (LRRK2; [4]): 0.547 ± 0.125
- pT73-Rab10, Lung (LRRK2; [4]): 0.189 ± 0.0562
- pS935-LRRK2, Kidney (LRRK2; [5]): 0.0563 ± 0.0147
- pS935-LRRK2, Lung (LRRK2; [5]): 0.102 ± 0.0215

B1: Clone 81-11: anti-phosphorylated (pT73) Rab10 rabbit monoclonal antibody; VH SEQ ID NO:21, VL SEQ ID NO:25 (antibody, V domains shown)
VH: METGLRWLLLVAVLKGVQCQSVEESGGRLVTPGTPLTLTCTVSGFSLSSYAMSWVRQAPGKGLEYIGLFNDVGIAYYANWAKGRFTFSKTSTTVDLKITSPTTEDTATYFCARVGGTTRVYGMDLWGPGTLVTVSS
VL: MDTRAPTQLLGLLLLWLPGATFAAVLTQTPSPVSAAVGGTVSISCQSSKSVRHNNYLSWYQQKPGQRPKLLIYGASTLASGVPSRFSGSGSGTEFTLTISDVQCDDAATYYCAGGYSGGGDDAFGGGTEVVVE
- detection of endogenous phosphorylated Rab10 signals in human PBMC by western blot [1]: detected endogenous phosphorylated Rab signals
- Western blot Human PBMC Ratio of DMSO/LRRK2 inhibitor A (mean ± SEM) [1]: 2.48 ± 0.31
- Sandwich ELISA (diagnostic), Ratio [2]: 33.74
- Sandwich ELISA (diagnostic) HEK cells overexpressing LRRK2, DMSO (RLU mean ± SD) [2]: 473585 ± 44210 RLU
- Sandwich ELISA (diagnostic) HEK cells overexpressing LRRK2, LRRK2 inhibitor A (RLU mean ± SD) [2]: 14037 ± 1627 RLU

B2: Clone 20: anti-phosphorylated (pT72) Rab8a rabbit monoclonal antibody; VH SEQ ID NO:63, VL SEQ ID NO:66 (antibody, V domains shown)
VH: METGLRWLLLVAVLKGVQCQSVEESGGRLVTPGTPLTLTCTVSGFSLSSYAMGWVRQAPGEGLEYFGIINTGGSAYYTNWAKGRFTISRTSTTVHLKITSPTTEDTATYFCARIAGDTRYYGMDPWGPGTLVTVSS
VL: B1 VL with H53N, S58A, R67P, S87K, E94Q, S117D, G120S, E133K
- detection of endogenous phosphorylated Rab8a signals in human PBMC by western blot ([3]; listed as 20): detected endogenous phosphorylated Rab signals
- Western blot Human PBMC Ratio of DMSO/LRRK2 inhibitor A (mean ± SEM) [3]: 3.50 ± 0.52

B3: Clone 71-3: anti-phosphorylated (pT72) Rab8a rabbit monoclonal antibody; VH SEQ ID NO:71, VL SEQ ID NO:75 (antibody, V domains shown)
VH: METGLRWLLLVAVLKGVQCQSVEESGGRLVTPGTPLTLTCTASGFSLNVYYMTWVRQAPGKGLDWIGIINTDITVHYANWARGRFTISKTSTTVDLKITSPTTEDTATYFCARARNSAWMDIWGPGTLVTVSL
VL: MDTRAPTQLLGLLLLWLPGATFAAVLTQTPSPVSAAVGGTVTINCQSDWSVYNNNLAWYQHKPGQPPKLLIYKTSTLASGVPSRFRGSGSGTQFTLTISDVQCDDTATYYCAGGYYRDSDTAFGGGTEVVVK
- detection of endogenous phosphorylated Rab8a signals in human PBMC by western blot [3]: detected endogenous phosphorylated Rab signals
- Western blot Human PBMC Ratio of DMSO/LRRK2 inhibitor A (mean ± SEM) [3]: 2.61 ± 0.42

B4: Clone 5: anti-phosphorylated (pT73) Rab10 rabbit monoclonal antibody; VH SEQ ID NO:1, VL SEQ ID NO:5 (antibody, V domains shown)
VH: METGLRWLLLVAVLKGVQCQSVEESGGRLVTPGTPLTLTCTVSGFSLSSYAMVWVRQAPGKGLEYIGLISRSGVTYYATWAKGRFTISKASTTVDLKIASPTTGDTATYFCVRDYDINGWSGFTIWGPGTLVTVSA
VL: MDTRAPTQLLGLLLWLPGAICDPVMTQTPSSTSAAVGGTVTINCQSSQSVYGNNYFSWYQQKPGQPPKLLIYKASTLASGVPSRFKGSGSGTQFTLTISDLECDDAATYYCAGAASDTRFFGGGTELVVN
- detection of endogenous phosphorylated Rab10 signals in human PBMC by western blot [1]: detected endogenous phosphorylated Rab signals
- Western blot Human PBMC Ratio of DMSO/LRRK2 inhibitor A (mean ± SEM) [1]: 3.45 ± 0.53
- Sandwich ELISA (diagnostic), Ratio [2]: 23.63
- Sandwich ELISA (diagnostic) HEK cells overexpressing LRRK2, DMSO (RLU mean ± SD) [2]: 85175 ± 16412 RLU
- Sandwich ELISA (diagnostic) HEK cells overexpressing LRRK2, LRRK2 inhibitor A (RLU mean ± SD) [2]: 3604 ± 1165 RLU

B5: Clone 86-9: anti-phosphorylated (pT72) Rab8a rabbit monoclonal antibody; VH SEQ ID NO:81, VL SEQ ID NO:85 (antibody, V domains shown)
VH: METGLRWLLLVAVLKGVQCQSVEESGGRLVTPGTPLTLTCTVSGFSLSSYYITWVRQAPGKGLEWLGIMNAGTTVHYANWVKGRFAISKTSTTVDLKITSPTTEDTATYFCARARNSVWMDIWGPGTLVTVSL
VL: MDTRAPTQLLGLLLLWLPGATLAAVLTQTPSPVSGAVGGSVTVNCQSDKSVYRDNLAWYQQKPGQPPKLLIYKASTLASGVPSRFRGSGAGTQFTLTISDVQCDDAATYFCAGGYSSDSDTAFGGGTEVVVK
- detection of endogenous phosphorylated Rab8a signals in human PBMC by western blot [3]: detected endogenous phosphorylated Rab signals
- Western blot Human PBMC Ratio of DMSO/LRRK2 inhibitor A (mean ± SEM) [3]: 2.26 ± 0.12

Reference: patent US11661461B2, “Phospho-Rab antibodies, assays and methods of use thereof” (Denali Therapeutics Inc., priority 2017, dated 2023)
